Consider 1 substance from article PMC7014971.

For the assay, the target named is full-length human BRAF, wild type (insect cell-produced) (human) (UniProt P15056). Nature of the assay: SEC-MALS. (Size exclusion chromatography separates by hydrodynamic size, large species first.)
UniProt P15056, sequence (P15056 whole entry): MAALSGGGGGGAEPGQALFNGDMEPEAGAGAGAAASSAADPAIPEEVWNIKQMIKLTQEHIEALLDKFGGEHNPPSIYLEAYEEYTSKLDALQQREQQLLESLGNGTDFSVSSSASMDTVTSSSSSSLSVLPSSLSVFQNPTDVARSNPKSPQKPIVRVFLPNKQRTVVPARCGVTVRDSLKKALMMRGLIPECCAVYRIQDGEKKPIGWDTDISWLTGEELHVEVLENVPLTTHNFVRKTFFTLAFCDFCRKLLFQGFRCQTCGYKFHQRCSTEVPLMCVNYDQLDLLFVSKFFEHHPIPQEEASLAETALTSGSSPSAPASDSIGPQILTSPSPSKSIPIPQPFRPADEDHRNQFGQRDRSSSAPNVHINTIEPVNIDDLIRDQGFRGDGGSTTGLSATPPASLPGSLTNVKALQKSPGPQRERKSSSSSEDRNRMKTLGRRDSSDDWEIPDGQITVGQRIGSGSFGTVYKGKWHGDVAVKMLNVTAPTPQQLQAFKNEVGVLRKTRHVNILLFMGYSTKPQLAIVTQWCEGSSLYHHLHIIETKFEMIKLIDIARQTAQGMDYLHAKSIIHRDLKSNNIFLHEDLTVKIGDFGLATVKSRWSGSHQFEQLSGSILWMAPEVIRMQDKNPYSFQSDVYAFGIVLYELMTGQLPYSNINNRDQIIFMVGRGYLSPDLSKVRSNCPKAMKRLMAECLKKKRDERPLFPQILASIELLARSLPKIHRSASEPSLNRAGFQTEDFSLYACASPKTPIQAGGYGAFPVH

For “insect cell-derived 14-3-3ε,ζ dimer (complex)”, the stoichiometry N (14-3-3 dimer per BRAF) was 1.
